Values of other authors as cited in article PMC5725453.

Biological target: PI4KB (Homo sapiens) (UniProt Q9UBF8)
Sequence of UniProt Q9UBF8 (Q9UBF8 2-816): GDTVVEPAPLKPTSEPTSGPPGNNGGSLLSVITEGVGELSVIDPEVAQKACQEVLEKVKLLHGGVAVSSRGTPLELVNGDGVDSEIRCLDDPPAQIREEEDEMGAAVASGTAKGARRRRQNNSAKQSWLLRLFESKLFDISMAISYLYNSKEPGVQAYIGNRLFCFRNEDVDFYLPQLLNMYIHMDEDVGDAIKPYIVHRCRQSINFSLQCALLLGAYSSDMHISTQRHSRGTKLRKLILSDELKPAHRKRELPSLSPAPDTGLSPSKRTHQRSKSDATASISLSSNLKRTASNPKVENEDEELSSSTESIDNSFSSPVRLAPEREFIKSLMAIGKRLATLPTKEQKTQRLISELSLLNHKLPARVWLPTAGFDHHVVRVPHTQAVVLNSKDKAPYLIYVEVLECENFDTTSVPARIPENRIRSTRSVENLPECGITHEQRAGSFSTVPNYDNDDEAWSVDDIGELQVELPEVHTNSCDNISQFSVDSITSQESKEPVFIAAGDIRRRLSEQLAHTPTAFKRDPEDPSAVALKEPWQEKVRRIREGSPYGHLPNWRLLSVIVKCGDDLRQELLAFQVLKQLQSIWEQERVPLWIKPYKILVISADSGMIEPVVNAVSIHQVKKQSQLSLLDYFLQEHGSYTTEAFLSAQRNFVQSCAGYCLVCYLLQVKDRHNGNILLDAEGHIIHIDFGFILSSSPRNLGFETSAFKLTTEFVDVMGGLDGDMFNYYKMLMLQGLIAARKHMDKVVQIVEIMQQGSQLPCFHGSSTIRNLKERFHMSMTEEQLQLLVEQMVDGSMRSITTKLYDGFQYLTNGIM

- Kd: 320 nM
Substance: ACBD3 (from UniProt Q9H3P7)
